Measurements from publication doi:10.1101/2023.09.28.559900.

Molecular target: mouse PIEZO1-S2472E mutant (mouse) (UniProt E2JF22)
Assay: cryo-EM structure

stoichiometry N: 3
Substance: mouse PIEZO1-S2472E mutant, E2JF22 1-2547
